According to article PMC10344781 (Nature Biotechnology, 2023):
Numbering of substitutions follows the chain as printed.

B1: scFv2 displayed on yeast (scFv, V domains shown)
VH: VLLQQSGPELVKPGASVKIPCKASGYTFTDYEMDWVKQSHGKSLEWIGSINPNNGGTMYNQKFKGKATLTVDKSSSAAYMEVRSLTSEDTAVYYCARKPYYGMNAWFAYWGQGTLVTVSA
VL: IQVTQSSSSFSVSLGDRVTITCKASEDIYNRLAWYQQKPGNAPRLLISGATSLETGVPDRFSGSGSRKDYTLIITSLQTEDVATYYCQQYYALPLTFGAGTKLELK
notes: 25-D1.16 scFv (PDB 3CVH) changed at the nine randomised peptide-contact CDR residues; also called clone 2
B2: scFv19 displayed on yeast (scFv, V domains shown)
VH: B1 VH with E32Y, S49T, M58V, Y101S, M103H, N104P
VL: B1 VL with L93F
notes: 25-D1.16 scFv (PDB 3CVH) changed at the nine randomised peptide-contact CDR residues; also called clone 19
B3: scFv12 displayed on yeast (scFv, V domains shown)
VH: B1 VH with E32D, M58I, Y101R, M103F, N104H
VL: B1 VL with A92G, L93Y
notes: 25-D1.16 scFv (PDB 3CVH) changed at the nine randomised peptide-contact CDR residues; also called clone 12

Biological target: T1, single-chain mouse Trp2/H2-K^b (scpMHC), biotinylated (Mus musculus, H2-Kb, UniProt P01901;P01887, biotin on the biotinylation tag (BirA))
T1 construct: residues 180-188 of tyrosinase-related protein 2 (Trp2), mouse; linker, (G4S)3 or (G4S)4; beta2M; H2-K^b without the transmembrane domain; used as monomer, as streptavidin tetramer and on an SA chip; also called Trp2/H2-K^b tetramers; Trp2/H2-K^b monomer; source: Expi293, purified (Ni-NTA, Superdex 200)
Experiment: flow cytometry on cells; yeast clones expressing TCRm scFv incubated with tenfold serially diluted target pMHC (monomer) for 1 h on ice, then streptavidin-AlexaFluor 647 for 15 min on ice
Conditions: one partner purified

| Binder | binding result |
| --- | --- |
| B1 | binds |
| B2 | binds |
| B3 | binds |
